Experimental data reported in PMC12255303, “Regulation of a phage defence island by RptR, a novel repressor that controls restriction–modification systems in diverse bacteria”.
Changes are numbered by the printed parent chain. In names and notes the source's numbering stands.

Tests used:
[1] = molecular target: RptR (RMS-proximal transcriptional regulator) with an N-terminal His6 tag and 3C protease cleavage site (Escherichia coli O127:H6 E2348/69 (EPEC)); experiment: SEC; analytical SEC on Superdex 75 Increase 10/300 GL, calibrated with five low-MW standards; MW of His6-3C-RptR interpolated from elution volumes of the purification (SEC buffer 25 mM Tris-HCl pH 8, 200 mM KCl)
RptR (His6-3C-RptR) [2] = molecular target: T1, RptR (His6-3C-RptR) (Escherichia coli O127:H6 E2348/69 (EPEC), UniProt B7UP23 1-79); experiment: EMSA; per RptR dimer; Hill coefficient 3.4; EMSA: 25 mM Tris-HCl pH 8, 150 mM NaCl, 5 mM MgCl2, 0.05 uM dsDNA, 37 C 30 min then 4 C; 8% TBE-PAGE at 4 C, SYBR Gold; settings: protein: recombinant; tags: N-terminal His6 and 3C protease site (cleavage not described); chain copies: 2; blunt
T1 sequence: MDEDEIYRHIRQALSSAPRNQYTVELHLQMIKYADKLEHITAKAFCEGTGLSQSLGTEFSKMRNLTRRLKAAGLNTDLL

RptR (His6-3C-RptR) [3] = molecular target: T1, RptR (His6-3C-RptR); experiment: EMSA; up to 1.2 uM RptR; EMSA: 25 mM Tris-HCl pH 8, 150 mM NaCl, 5 mM MgCl2, 0.05 uM dsDNA, 37 C 30 min then 4 C; 8% TBE-PAGE at 4 C, SYBR Gold; settings: protein: recombinant; tags: N-terminal His6 and 3C protease site (cleavage not described); chain copies: 2; blunt
RptR (His6-3C-RptR) [4] = molecular target: T1, RptR (His6-3C-RptR); experiment: EMSA; single shift; settings: protein: recombinant; tags: N-terminal His6 and 3C protease site (cleavage not described); chain copies: 2; blunt
RptR (His6-3C-RptR) [5] = molecular target: T1, RptR (His6-3C-RptR); experiment: EMSA; binding abolished; settings: protein: recombinant; tags: N-terminal His6 and 3C protease site (cleavage not described); chain copies: 2; blunt
RptR (His6-3C-RptR) [6] = molecular target: T1, RptR (His6-3C-RptR); experiment: EMSA; higher shift only; settings: protein: recombinant; tags: N-terminal His6 and 3C protease site (cleavage not described); chain copies: 2; blunt
RptR (His6-3C-RptR) [7] = molecular target: T1, RptR (His6-3C-RptR); experiment: EMSA; same shift as DR1/s/3; settings: protein: recombinant; tags: N-terminal His6 and 3C protease site (cleavage not described); chain copies: 2; blunt

## RptR (RMS-proximal transcriptional regulator) with an N-terminal His6 tag and 3C protease cleavage site (natural protein)
[1]
  stoichiometry N: 2

B1: DR1/2/3 (WT) (dsDNA)
DNA 1: AGTTCTTGAACCTGATACCACATTTAGCTAATTTAGCTAATTTAGCTAACTTATCCATTA
DNA 2: TAATGGATAAGTTAGCTAAATTAGCTAAATTAGCTAAATGTGGTATCAGGTTCAAGAACT
RptR (His6-3C-RptR) [2]
  Kd: 185 nM

B2: DRs/s/s (dsDNA)
DNA 1: AGTTCTTGAACCTGATACCACATTGAATCTATTGAATCTATTGAATCTACTTATCCATTA
DNA 2: TAATGGATAAGTAGATTCAATAGATTCAATAGATTCAATGTGGTATCAGGTTCAAGAACT
RptR (His6-3C-RptR) [3]
  binding result: no binding

B3: DR1/2/s (WT control) (dsDNA)
DNA 1: B1 DNA 1 with T43G, G45A, C46T, T47C, A48T
DNA 2: B1 DNA 2 with T13A, A14G, G15A, C16T, A18C
RptR (His6-3C-RptR) [4]
  binding result: binds

B4: DRs/2/3 (dsDNA)
DNA 1: B1 DNA 1 with T25G, G27A, C28T, T29C, A30T
DNA 2: B1 DNA 2 with T31A, A32G, G33A, C34T, A36C
RptR (His6-3C-RptR) [4]
  binding result: binds

B5: DR1/2/3 C6G (labelled C5G in Fig S4) (dsDNA)
DNA 1: B1 DNA 1 with C28G, C37G, C46G
DNA 2: B1 DNA 2 with G15C, G24C, G33C
RptR (His6-3C-RptR) [5]
  binding result: no binding

B6: DR1/s/3 (dsDNA)
DNA 1: B1 DNA 1 with T34G, G36A, C37T, T38C, A39T
DNA 2: B1 DNA 2 with T22A, A23G, G24A, C25T, A27C
RptR (His6-3C-RptR) [6]
  binding result: binds

B7: DR1/r/3 (dsDNA)
DNA 1: B1 DNA 1 with T32G, T33A, T34G, C37A, T38G, A40G
DNA 2: B1 DNA 2 with T21C, A23C, G24T, A27C, A28T, A29C
RptR (His6-3C-RptR) [7]
  binding result: binds
